Measured values reported in patent publication US20230203097A1.
Where no end group is shown, it is not given here.

Assays:
recombinant MAVS protein [1] = assay: fluorescence-labeled peptide titrated on plate-coated recombinant MAVS (250 ng per well), fluorescence read-out
recombinant MAVS protein [2] = assay: fluorescence-labeled peptide titrated on plate-coated recombinant MAVS; ratio of the Kd of MQP-37 to that of MQP-37A6

Sequence of recombinant MAVS protein (Q7Z434 2-540): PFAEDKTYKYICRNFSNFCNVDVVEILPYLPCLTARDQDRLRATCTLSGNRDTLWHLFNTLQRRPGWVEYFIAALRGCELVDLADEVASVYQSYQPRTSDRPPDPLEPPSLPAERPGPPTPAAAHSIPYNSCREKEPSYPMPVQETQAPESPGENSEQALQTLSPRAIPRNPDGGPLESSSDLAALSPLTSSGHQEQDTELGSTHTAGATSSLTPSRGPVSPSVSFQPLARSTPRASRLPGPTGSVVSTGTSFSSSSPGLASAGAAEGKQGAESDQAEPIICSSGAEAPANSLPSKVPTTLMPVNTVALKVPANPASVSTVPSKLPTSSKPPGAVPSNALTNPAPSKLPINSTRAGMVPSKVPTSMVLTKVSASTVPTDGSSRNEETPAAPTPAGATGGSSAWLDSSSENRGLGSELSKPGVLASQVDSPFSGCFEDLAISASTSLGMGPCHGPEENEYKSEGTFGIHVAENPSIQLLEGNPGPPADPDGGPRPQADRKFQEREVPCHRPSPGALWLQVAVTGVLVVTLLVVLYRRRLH

| Binder | Kd (recombinant MAVS protein [1]) | fold binding affinity against MQP-37 (recombinant MAVS protein [2]) |
| --- | --- | --- |
| SLVLADARW (also: fluorescence-labeled, label and position not given here) [fluorescence-labeled peptide MQP-37] | 16 mM | – |
| SLVLAAARW (also: fluorescence-labeled, label and position not given here) [fluorescence-labeled novel alanine-substituted peptide MQP-37A6] | 0.75 mM | 20 times |
